Reference: patent US20230103631A1, “PEPTIDES AS SELECTIVE GIP RECEPTOR AGONISTS” (Sanofi, priority 2020, published 2023)
*1 amine or outer side, *2 acyl side, *3 side chain or, on linkers, in order; H or OH if unused. Where no end group is shown, it is not given here. Side-chain parts run from the residue outwards. [ ]: non-standard residue; d: D form. The star is where a group is joined. C18 diacid = O=C(O)CCCCCCCCCCCCCCCCC(=O)*; γGlu = O=C(O)[C@H](CCC(=O)[*:2])N[*:1]; AEEA = NCCOCCOCC(=O)O; Aib = CC(C)(N)C(=O)O; Sar = CNCC(=O)O

B1: SEQ ID NO: 9 (peptide)
peptide: Y[Aib]EGTFISDLSI[Aib]K([AEEA-AEEA-γGlu-C18 diacid])DRIHQEEFIEWLLAQGPSSGAPPPS-NH2
modifications: N-terminus assumed
SMILES: CC[C@H](C)[C@H](NC(=O)[C@H](Cc1ccccc1)NC(=O)[C@H](CCC(=O)O)NC(=O)[C@H](CCC(=O)O)NC(=O)[C@H](CCC(N)=O)NC(=O)[C@H](Cc1c[nH]cn1)NC(=O)[C@@H](NC(=O)[C@H](CCCNC(=N)N)NC(=O)[C@H](CC(=O)O)NC(=O)[C@H](CCCCNC(=O)COCCOCCNC(=O)COCCOCCNC(=O)CC[C@H](NC(=O)CCCCCCCCCCCCCCCCC(=O)O)C(=O)O)NC(=O)C(C)(C)NC(=O)[C@@H](NC(=O)[C@H](CO)NC(=O)[C@H](CC(C)C)NC(=O)[C@H](CC(=O)O)NC(=O)[C@H](CO)NC(=O)[C@@H](NC(=O)[C@H](Cc1ccccc1)NC(=O)[C@@H](NC(=O)CNC(=O)[C@H](CCC(=O)O)NC(=O)C(C)(C)NC(=O)[C@@H](N)Cc1ccc(O)cc1)[C@@H](C)O)[C@@H](C)CC)[C@@H](C)CC)[C@@H](C)CC)C(=O)N[C@@H](CCC(=O)O)C(=O)N[C@@H](Cc1c[nH]c2ccccc12)C(=O)N[C@@H](CC(C)C)C(=O)N[C@@H](CC(C)C)C(=O)N[C@@H](C)C(=O)N[C@@H](CCC(N)=O)C(=O)NCC(=O)N1CCC[C@H]1C(=O)N[C@@H](CO)C(=O)N[C@@H](CO)C(=O)NCC(=O)N[C@@H](C)C(=O)N1CCC[C@H]1C(=O)N1CCC[C@H]1C(=O)N1CCC[C@H]1C(=O)N[C@@H](CO)C(N)=O
notes: Exendin-4 derived synthetic lipidated peptide of formula I
B2: SEQ ID NO: 6 (peptide)
peptide: Y[Aib]EGTFISDLSI[Aib]K([Sar-Sar-Sar-γGlu-C18 diacid])DRIHQ[Aib]EFIEWLLAQGPSSGAPPPS-NH2
modifications: N-terminus assumed
SMILES: CC[C@H](C)[C@H](NC(=O)[C@H](CCCNC(=N)N)NC(=O)[C@H](CC(=O)O)NC(=O)[C@H](CCCCNC(=O)CN(C)C(=O)CN(C)C(=O)CN(C)C(=O)CC[C@H](NC(=O)CCCCCCCCCCCCCCCCC(=O)O)C(=O)O)NC(=O)C(C)(C)NC(=O)[C@@H](NC(=O)[C@H](CO)NC(=O)[C@H](CC(C)C)NC(=O)[C@H](CC(=O)O)NC(=O)[C@H](CO)NC(=O)[C@@H](NC(=O)[C@H](Cc1ccccc1)NC(=O)[C@@H](NC(=O)CNC(=O)[C@H](CCC(=O)O)NC(=O)C(C)(C)NC(=O)[C@@H](N)Cc1ccc(O)cc1)[C@@H](C)O)[C@@H](C)CC)[C@@H](C)CC)C(=O)N[C@@H](Cc1c[nH]cn1)C(=O)N[C@@H](CCC(N)=O)C(=O)NC(C)(C)C(=O)N[C@@H](CCC(=O)O)C(=O)N[C@@H](Cc1ccccc1)C(=O)N[C@H](C(=O)N[C@@H](CCC(=O)O)C(=O)N[C@@H](Cc1c[nH]c2ccccc12)C(=O)N[C@@H](CC(C)C)C(=O)N[C@@H](CC(C)C)C(=O)N[C@@H](C)C(=O)N[C@@H](CCC(N)=O)C(=O)NCC(=O)N1CCC[C@H]1C(=O)N[C@@H](CO)C(=O)N[C@@H](CO)C(=O)NCC(=O)N[C@@H](C)C(=O)N1CCC[C@H]1C(=O)N1CCC[C@H]1C(=O)N1CCC[C@H]1C(=O)N[C@@H](CO)C(N)=O)[C@@H](C)CC
notes: as for B1
B3: SEQ ID NO: 5 (peptide)
peptide: Y[Aib]EGTFISDLSI[Aib]K([Gly-Gly-Gly-γGlu-C18 diacid])DRIHQ[Aib]EFIEWLLAQGPSSGAPPPS-NH2
modifications: N-terminus assumed
SMILES: CC[C@H](C)[C@H](NC(=O)[C@H](CCCNC(=N)N)NC(=O)[C@H](CC(=O)O)NC(=O)[C@H](CCCCNC(=O)CNC(=O)CNC(=O)CNC(=O)CC[C@H](NC(=O)CCCCCCCCCCCCCCCCC(=O)O)C(=O)O)NC(=O)C(C)(C)NC(=O)[C@@H](NC(=O)[C@H](CO)NC(=O)[C@H](CC(C)C)NC(=O)[C@H](CC(=O)O)NC(=O)[C@H](CO)NC(=O)[C@@H](NC(=O)[C@H](Cc1ccccc1)NC(=O)[C@@H](NC(=O)CNC(=O)[C@H](CCC(=O)O)NC(=O)C(C)(C)NC(=O)[C@@H](N)Cc1ccc(O)cc1)[C@@H](C)O)[C@@H](C)CC)[C@@H](C)CC)C(=O)N[C@@H](Cc1c[nH]cn1)C(=O)N[C@@H](CCC(N)=O)C(=O)NC(C)(C)C(=O)N[C@@H](CCC(=O)O)C(=O)N[C@@H](Cc1ccccc1)C(=O)N[C@H](C(=O)N[C@@H](CCC(=O)O)C(=O)N[C@@H](Cc1c[nH]c2ccccc12)C(=O)N[C@@H](CC(C)C)C(=O)N[C@@H](CC(C)C)C(=O)N[C@@H](C)C(=O)N[C@@H](CCC(N)=O)C(=O)NCC(=O)N1CCC[C@H]1C(=O)N[C@@H](CO)C(=O)N[C@@H](CO)C(=O)NCC(=O)N[C@@H](C)C(=O)N1CCC[C@H]1C(=O)N1CCC[C@H]1C(=O)N1CCC[C@H]1C(=O)N[C@@H](CO)C(N)=O)[C@@H](C)CC
notes: as for B1
B4: SEQ ID NO: 11 (peptide)
peptide: Y[Aib]EGTFISDLSI[Aib]K([AEEA-AEEA-γGlu-C18 diacid])DRIHQEEFIEWLLAQGPSSGAPPPS-OH
modifications: N-terminus assumed
SMILES: CC[C@H](C)[C@H](NC(=O)[C@H](Cc1ccccc1)NC(=O)[C@H](CCC(=O)O)NC(=O)[C@H](CCC(=O)O)NC(=O)[C@H](CCC(N)=O)NC(=O)[C@H](Cc1c[nH]cn1)NC(=O)[C@@H](NC(=O)[C@H](CCCNC(=N)N)NC(=O)[C@H](CC(=O)O)NC(=O)[C@H](CCCCNC(=O)COCCOCCNC(=O)COCCOCCNC(=O)CC[C@H](NC(=O)CCCCCCCCCCCCCCCCC(=O)O)C(=O)O)NC(=O)C(C)(C)NC(=O)[C@@H](NC(=O)[C@H](CO)NC(=O)[C@H](CC(C)C)NC(=O)[C@H](CC(=O)O)NC(=O)[C@H](CO)NC(=O)[C@@H](NC(=O)[C@H](Cc1ccccc1)NC(=O)[C@@H](NC(=O)CNC(=O)[C@H](CCC(=O)O)NC(=O)C(C)(C)NC(=O)[C@@H](N)Cc1ccc(O)cc1)[C@@H](C)O)[C@@H](C)CC)[C@@H](C)CC)[C@@H](C)CC)C(=O)N[C@@H](CCC(=O)O)C(=O)N[C@@H](Cc1c[nH]c2ccccc12)C(=O)N[C@@H](CC(C)C)C(=O)N[C@@H](CC(C)C)C(=O)N[C@@H](C)C(=O)N[C@@H](CCC(N)=O)C(=O)NCC(=O)N1CCC[C@H]1C(=O)N[C@@H](CO)C(=O)N[C@@H](CO)C(=O)NCC(=O)N[C@@H](C)C(=O)N1CCC[C@H]1C(=O)N1CCC[C@H]1C(=O)N1CCC[C@H]1C(=O)N[C@@H](CO)C(=O)O
notes: as for B1

Biological target: T1, human GIP receptor (human, UniProt P48546 22-466)
T1 construct: whole, on cells; also called hGIPR; hGIP receptor
T1 sequence (looked up): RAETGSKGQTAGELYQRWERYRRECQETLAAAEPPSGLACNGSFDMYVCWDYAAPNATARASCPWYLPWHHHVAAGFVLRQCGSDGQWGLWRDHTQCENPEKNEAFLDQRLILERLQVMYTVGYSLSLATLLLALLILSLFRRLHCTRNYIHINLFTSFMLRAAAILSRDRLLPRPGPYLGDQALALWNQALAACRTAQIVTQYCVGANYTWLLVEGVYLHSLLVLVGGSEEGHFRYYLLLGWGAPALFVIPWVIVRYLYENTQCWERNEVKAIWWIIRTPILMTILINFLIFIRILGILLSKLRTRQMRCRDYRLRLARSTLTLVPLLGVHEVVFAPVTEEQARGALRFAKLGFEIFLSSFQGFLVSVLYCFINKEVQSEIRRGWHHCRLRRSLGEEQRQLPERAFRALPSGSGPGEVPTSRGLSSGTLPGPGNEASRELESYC
Test: displacement of [125I]GIP from hGIPR HEK-293 membranes, SPA

B1 showed an IC50 of 0.9 nM.

Biological target: T1, human GIP receptor
Test: cell-based or functional assay

In order of rising “hGIPR EC50, cAMP in human adipocytes” value:
1. B2  0.3 nM
2. B3  0.5 nM
3. B4  1 nM
4. B1  1.4 nM

In order of falling “hGIPR Emax, cAMP in human adipocytes” value:
1. B3  137%
2. B1  125%
3. B4  122%
4. B2  112%

Biological target: T2, human GLP-1 receptor (human, UniProt P43220 24-463)
Test: cell-based or functional assay

B1 and B2 cannot be ordered by “EC50 hGLP-1R 0% HSA, cAMP in HEK-293 cells” value: greater than 10 nM for the first, greater than 10 nM for the second.

B3 and B4 cannot be ordered by “EC50 hGLP-1R 0% HSA, cAMP in HEK-293 cells” value: greater than 10 nM for the first, greater than 10 nM for the second.

Biological target: T1, human GIP receptor
Test: cell-based or functional assay
Remark: another data set of the same source

In order of rising “EC50 hGIPR 0% HSA, cAMP in HEK-293 cells” value:
1. B3  0.00016 nM
2. B2  0.00017 nM
3. B1  0.00019 nM
4. B4  0.00019 nM

In order of rising “EC50 hGIPR 0.1% HSA, cAMP in HEK-293 cells” value:
1. B2  0.00105 nM
2. B3  0.00175 nM
3. B1  0.00194 nM
4. B4  0.00224 nM

Biological target: T2, human GLP-1 receptor
Test: displacement of [125I]GLP-1 from hGLP-1R HEK-293 membranes, SPA

In order of rising IC50:
1. B3  145 nM
2. B2  173 nM
3. B4  288 nM
4. B1  307 nM
